Assay results: patent publication US20260201030A1, “ANTIBODY, ANTIBODY-DRUG CONJUGATE THEREOF AND USE THEREOF” (EVOPOINT BIOSCIENCES CO., LTD., priority 2021, published 2026)
Positions count from the first letter of the chain named.

B1: 2D3A11: anti-human Claudin18.2 murine monoclonal antibody, VH SEQ ID NO: 23, VL SEQ ID NO: 24 (antibody, V domains shown)
VH: EVQLQQSGPELVKPGASVRMSCKASGYTFTSYVVHWVKQKPGQGLEWIGYINPYNADSKYNERFKGKATLTSDKSSNSAYMELSSLTSEDSAVYYCSRSYYGNSFDVWGAGTTVTVSS
VL: DIVMTQSPSSLTVTTGEKVTMSCKSSQSLLNSGNQKNYLTWYQQKPGQSPKLLFFWASTRQSGVPDRFTGSGSGTYFTLTISSVQAEDLAVYYCQNDYYFPFTFGTGTKLEIK
B2: 2D3A11-HZ2: humanized anti-Claudin18.2 antibody, VH SEQ ID NO: 40, VL SEQ ID NO: 39 (antibody, V domains shown)
VH: QVQLVESGAEVKKPGASVKVSCKASGYTFTSYVVHWVRQAPGQGLEWMGYINPYNADSKYSQEFQGRATLTSDKSASTAYMELSSLRSEDMAVYYCSRSYYGNSFDVWGQGTLVTVSS
VL: DIVMTQSPDSLAVSLGERATINCKSSQSLLNSGNQKNYLTWYQQKPGQSPKLLFFWASTRQSGVPDRFSGSGSGTDFTLTISSLQAEDVAVYYCQNDYYFPFTFGQGTKVEIK
B3: 1A6G10: anti-human Claudin18.2 murine monoclonal antibody, VH SEQ ID NO: 46, VL SEQ ID NO: 47 (antibody, V domains shown)
VH: QVQLKESGGGLVKPGGSLKLSCAASGFTFSSYAMSWVRQTPEKRLEWVAAIHSNGGSTYNSDTMRDRFTISRDHAKNTLYLQMSSLRSEDTALYYCGRQSFGNALDYWGQGTSVTVSS
VL: DIQMTQSPSSLTVTAGEKVTLTCKSSQSLLNSGNQKNYLTWYQQKPGQPPKLLIYWASTRESGVPDRFTGSGSGTFFTLTISSVQAEDLAVYFCQNDYVYPFTFGAGTQLELK
B4: 40G11H2: anti-human Claudin18.2 murine monoclonal antibody, VH SEQ ID NO: 50, VL SEQ ID NO: 51 (antibody, V domains shown)
VH: EVQLQQSGAELARPGASVKLSCKASGYTFTSYGIRWVKQRTGQGLEWIGEIYPRGGNTYYDEKFKGKATLTADKSSSTAYMGLRSLTSEDSAVYFCARADYGNSFAYWGQGTLVTVSA
VL: DIVMTQSPSSLTVTAREKVTMSCKSSQSLLNSGNQKNYLTWYHQKPGQPPKLLIYWASTRESGVPDRFTGSGSGTDFTLTISSVQAEDLAVYFCQNAYFYPFTFGTGTKLEIK
B5: 8H11A10: anti-human Claudin18.2 murine monoclonal antibody, VH SEQ ID NO: 44, VL SEQ ID NO: 45 (antibody, V domains shown)
VH: QVQLKESGPVLVAPSQSLSITCTVSGFSLTNYGVHWVRQPPGKGLEWLGVIWSGGRTNYNSALMSRLSISKDNSKSQVFLKMNSLQTDDTAMYYCAKRDGIYGDYWGQGTSVTVSS
VL: DIVETQSPSSLTVTAGEKVTMSCKSSQSLLNSGNQKNYLTWYQQKPGQSPKLLIYWASTRESGVPDRFTGSGFGTDFTLTISSVQAEDLAVYYCQNDYIYPLTFGAGTKLELK
B6: 23F2F2: anti-human Claudin18.2 murine monoclonal antibody, VH SEQ ID NO: 48, VL SEQ ID NO: 49 (antibody, V domains shown)
VH: QVQLKESGGGLVQPGGSMKLSCAASGFTFSDAWMNWVRQSPEKGLEWVAEIRNKADYHATHYVESVTGRFTISRDDSKSSVYLQMNRLRAEDTGIYYCTRNYGSRFDYWGQGTTLTVSS
VL: B5 VL with K36R, Q48H, S49P, F73S, I81V, S82T, I99F, T103A, A106T
B7: 25C7A5: anti-human Claudin18.2 murine monoclonal antibody, VH SEQ ID NO: 21, VL SEQ ID NO: 22 (antibody, V domains shown)
VH: EVQLQQPGAELVKPGTSVKLSCKASGYTFTNYWLHWVRQRPGQGLEWIGMMHPISGSSNNNERFKSKATLTVDKSSTTAYMQLSRMTSEDSAVYYCARGLLSAMDYWGQGTSVTVSS
VL: CIVLTQSPKSMSMSVGERVTLSCKASENVKTYVSWYQQRPEQSPKLLIYEASNRYTGVPDRFTGSGSATVFTLTISSVQTEDLANYFCGQTYSFPPTFGSGTKLEIK
B8: 32F7A6: anti-human Claudin18.2 murine monoclonal antibody, VH SEQ ID NO: 52, VL SEQ ID NO: 53 (antibody, V domains shown)
VH: QIQLVQSGPELRKPGETVKISCKASGYTFTAYTMGWVKQAPGKGLEWMAWINTYSGVPTYAADFKGRFAFSLETSASTAYLLINNLKNEDTATYFCARGVRGNSMDYWGQGTSVTVSS
VL: DIVETQSPSSLTVTVGERVTLSCKSSQSLLNSGNQRNYLTWSQQKPGQPPKLLIYWASTRESGVPNRFTGGGSGTYFTLTISSVQVEDLAVYYCQNTYSFPFTFGTGTKLEIK

Tests used:
Assay type in all cases: binding
human Claudin18.2 [1] = target: T1, human Claudin18.2 (Homo sapiens, UniProt P56856); assay: Cell-based ELISA affinity of murine antibodies on HEK293T-Claudin18.2 (human) cells
T1 construct: expressed in transfected cells
Protocol: (§1) The affinity of the anti-human Claudin18.2 murine monoclonal antibodies was evaluated by cell-based ELISA. The experimental procedures were as follows: The day before the experiment, HEK293T-Claudin18.2 (human) cells were plated in a 96-well plate at 5×10^4 cells/well. On the day of the experiment, the supernatant was removed, the cells in each well were washed once with 300 μL of PBS, and 100 μL of 4% paraformaldehyde was added to each well for fixation at room temperature for 20 min. Paraformaldehyde was then removed, and the cells in each well were washed twice with 300 μL of PBS. 100 μL of 2% BSA (in PBS) was added to each well, and the mixture was blocked at 37° C. for 2 h. After removing the blocking solution, each antibody subjected to gradient dilution (diluted with 2% BSA (in PBS), starting at […], in a 3-fold gradient, for a total of 11 concentration points) was added to the plate at 100 μL/well, and the mixture was incubated at 37° C. for 2 h. The supernatant was removed, and the cells in each well were washed three times with 300 μL of PBST. 100 μL of an anti-mouse IgG HRP secondary antibody (Jackson, cat #115-035-003) in 2% BSA was added to each well, and the mixture was incubated at 37° C. for 1 h. The secondary antibody was then removed, and the cells in each well were washed five times with 300 μL of PBST, followed by the addition of 100 μL of a TMB substrate (Huzhou InnoReagents Co., Ltd.) per well for color development for 5-20 min. The reaction was stopped by adding 50 μL of 2 N HCl to each well, and OD450 nm values were read on a microplate reader (manufacturer: MD, model: SpectraMax). The values obtained were plotted by GraphPad Prism to calculate the EC50 value.

human Claudin18.1 = target: T2, human Claudin18.1 (Homo sapiens, UniProt P56856); assay: FACS specificity of humanized antibodies on HEK293T-Claudin18.1 (human) cells; settings: antibody 50 μg/mL, APC secondary antibody
T2 construct: expressed in transfected cells
Protocol: The specificity of the anti-human Claudin18.2 humanized monoclonal antibodies was determined by flow cytometry (FACS). The experimental procedures were as follows: HEK293T-Claudin18.1 (human) cells were digested, collected by centrifugation, washed three times with pre-cooled PBS, resuspended in 1% BSA (in PBS), and added to a 96-well pointed bottom plate at 3×10^5 cells/well. Each test antibody with a final concentration of 50 μg/mL was added, and the mixture was incubated at 4° C. for 1 h. The cells were washed three times with pre-cooled PBS, and then 1 μL of a fluorescent secondary antibody (APC: Biolegend-410712 or PE: BioLegend-410708) was added to each well. The mixture was incubated at 4° C. for 0.5 h, and the cells were washed three times with pre-cooled PBS, then resuspended, and assayed on a flow cytometer. For reference, anti-human Claudin18.1 positive control antibodies (positive control antibody-1 and positive control antibody-2) were included in the experiment.

human Claudin18.2 [2] = target: T1, human Claudin18.2; assay: Cell-based ELISA affinity of humanized antibodies on HEK293T-Claudin18.2 (human) cells; settings: HEK293T-Claudin18.2 cells
Protocol: as §1
The affinity of the anti-human Claudin18.2 humanized monoclonal antibodies was determined by cell-based ELISA. The cell-based ELISA was conducted as described in Example I-3.

human Claudin18.2 [3] = target: T1, human Claudin18.2; assay: Cell-based ELISA affinity of humanized antibodies on L929-Claudin18.2 (human) cells; settings: L929-Claudin18.2 cells

Molecule	Affinity HEK293T-18.2 EC50 (human Claudin18.2 [1])	other results
B1	8.143 ng/mL	–
B2	–	Mean APC fluorescence signal value (human Claudin18.1): 382; Median APC fluorescence signal value (human Claudin18.1): 329; Positive rate (%) (human Claudin18.1): 1%; Affinity detected by cell-based ELISA (EC50, ng/mL) HEK293T-Claudin18.2 (human Claudin18.2 [2]): 14.01 ± 2.29(N = 2) ng/mL; Affinity detected by cell-based ELISA (EC50, ng/mL) L929-Claudin18.2 (human Claudin18.2 [3]): 25.62 ng/mL
B3	5.024 ng/mL	–
B4	7.376 ng/mL	–
B5	12.32 ng/mL	–
B6	6.015 ng/mL	–
B7	10.49 ng/mL	–
B8	2.399 ng/mL	–
